Laboratory results as given in patent US20030232757A1.

Target: T1, CryET39 crystal protein (Bacillus thuringiensis delta-endotoxin, approximately 44-kDa) (Bacillus thuringiensis (strain EG5899))
T1 sequence: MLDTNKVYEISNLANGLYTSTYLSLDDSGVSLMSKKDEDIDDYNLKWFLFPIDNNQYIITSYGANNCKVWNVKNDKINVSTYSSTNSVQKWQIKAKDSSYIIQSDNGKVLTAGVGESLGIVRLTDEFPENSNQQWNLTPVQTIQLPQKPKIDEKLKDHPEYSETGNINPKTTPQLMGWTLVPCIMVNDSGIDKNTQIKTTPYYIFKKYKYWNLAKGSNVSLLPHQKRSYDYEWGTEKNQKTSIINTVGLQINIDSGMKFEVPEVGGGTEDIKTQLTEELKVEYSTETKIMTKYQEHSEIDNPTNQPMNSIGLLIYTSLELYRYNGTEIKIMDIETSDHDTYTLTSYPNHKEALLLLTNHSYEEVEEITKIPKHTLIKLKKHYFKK
Test: cell-based or functional assay

B1: CryET74 crystal protein (Bacillus thuringiensis delta-endotoxin, approximately 13-15-kDa) (protein)
chain: MSAREVHIEINNKTRHTLQLEDKTKLSGGRWRTSPTNVARDTIKTFVAESHGFMTGVEGIIYFSVNGDAEISLHFDNPYIGSNKCDGSSDKPEYEVITQSGSGDKSHVTYTIQTVSLRL
Work on B1 yielded a Percent Control (WCRW larval mortality corrected for diluent control); 50:50 mixture EG11935 (CryET74) + EG11937 (1) (CryET39), dose 80 µg/well (percent control) of 100, a Percent Control (WCRW larval mortality corrected for diluent control); 50:50 mixture EG11935 (CryET74) + EG11937 (1) (CryET39), dose 160 µg/well (percent control) of 100 and a Percent Control (WCRW larval mortality corrected for diluent control); 50:50 mixture EG11935 (CryET74) + EG11937 (2) (CryET39), dose 80 µg/well (percent control) of 100. For the same binder, the Percent Control (WCRW larval mortality corrected for diluent control); 50:50 mixture EG11935 (CryET74) + EG11937 (2) (CryET39), dose 160 µg/well (percent control) was 93.3, the Percent Control (WCRW larval mortality corrected for diluent control); EG11936 (CryET39 + CryET74 co-expressed), dose 80 µg/well (percent control) was 100 and the Percent Control (WCRW larval mortality corrected for diluent control); EG11936 (CryET39 + CryET74 co-expressed), dose 160 µg/well (percent control) was 100.
